Laboratory results: PMC8629192

Biological target: spike, depending on domain and variant
Experiment: ELISA

LRRC15-Fc, sequence (Q8TF66 22-538): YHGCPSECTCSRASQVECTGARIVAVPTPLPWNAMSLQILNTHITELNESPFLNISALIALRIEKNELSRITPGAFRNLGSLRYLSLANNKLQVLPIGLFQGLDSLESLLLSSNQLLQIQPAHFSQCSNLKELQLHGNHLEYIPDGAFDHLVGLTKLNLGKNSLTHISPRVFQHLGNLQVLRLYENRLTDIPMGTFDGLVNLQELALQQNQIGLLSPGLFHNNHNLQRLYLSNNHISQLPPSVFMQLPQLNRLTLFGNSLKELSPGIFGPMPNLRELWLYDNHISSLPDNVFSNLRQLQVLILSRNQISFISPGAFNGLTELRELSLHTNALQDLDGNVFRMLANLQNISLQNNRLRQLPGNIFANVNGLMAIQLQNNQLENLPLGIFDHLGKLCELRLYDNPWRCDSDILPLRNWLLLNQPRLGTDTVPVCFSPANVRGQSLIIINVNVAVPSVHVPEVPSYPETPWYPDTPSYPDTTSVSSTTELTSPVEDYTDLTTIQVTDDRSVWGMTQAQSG

Substance: LRRC15-Fc (from UniProt Q8TF66) (Fc fusion)
- Kd: 43 to 148 nM
